Test results from the supplement of paper PMC10567573.

B1: SPATS1 (parent)
chain: GRKKYDIDPRNGIPKLTPGDNPYM
B2: APBB1IP (parent)
chain: ADPVLDLPLPPPPPEPLSQVSMWD
B3: POMT2 (parent)
chain: VLRSRIRFIHLVTGCVLGSSGKVL

Variants of: B1
Experiment: protein stability index of a GFP-peptide fusion (GPS, HEK-293T) (PSI 1-6); higher = more stable
Settings: c terminus: a fixed tail appended
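Also: lentivirally expressed fusions sorted by FACS into six bins by GFP to DsRed ratio, PSI derived from sequencing read proportions per bin multiplied by bin number.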

Protein stability index: each site, then its substitutions
P14: S 3.3, A 3.52, I 2.96, C 2.95, T 3.27
K4: R 3.19, Y 3.22, H 3.2, A 3.38, G 3.71, D 3.83, E 4.1, C 2.81
P18: Y 2.46, D 3.82, S 3.55, F 1.9, E 3.92, I 3.27, Q 3.86, W 2.73, T 3.85, L 2.81, G 2.98
D20: V 3.37, S 3.79, N 3.12, G 3.3, F 2.33, I 2.18, Q 3.36, K 3.74, E 3.65, T 3.12, Y 2.49, A 3.58
K15: T 3.78, G 2.81, M 3.69, R 3.63, F 2.97, C 3.04, D 3.88, W 1.98, H 3.55, Q 4.05, P 3.62, N 3.49, L 3.29
G12: K 3.58, N 3.21, Q 3.72, L 3.09, C 2.48, V 3.46, H 3.32, I 2.77, F 3.34
P9: T 3.62, V 3.36, L 3.24, K 3.27, M 3.28, H 3.79, R 3.74, F 2.8, I 3.69, C 3.72, Y 2.99
Y5: T 4.11, L 4.43, W 2.92, G 4.44, K 4.23, M 3.65, H 3.88, I 3.4, A 4.14, R 4.07, C 4.08
T17: F 2.72, V 3.2, G 3.48, W 2.47, C 3.13, N 3.48, A 3.58, H 3.34
M24: W 3.53, L 3.62, G 3.5, C 3.73, P 3.98, Y 3.73, Q 4.02, H 3.76, I 3.46

Variants of: B2
Experiment: as above
Settings: c terminus: a fixed tail appended

Protein stability index, by site and new letter:
P11: K 4.69, E 4.69, V 4.43
P13: V 3.84, W 3.8, R 4.37, K 4.6, E 4.96

Variants of: B3
Experiment: as above
Settings: c terminus: a fixed tail appended

Protein stability index: each site, then its substitutions
K22: C 2.73, F 2.53, V 3.02, Y 2.74, S 2.57, W 3.35, A 2.25, H 2.37, L 2.69, D 3.31, P 1.99
L24: S 2.75, W 4.21, D 2.33, I 4.08, Y 2.18, R 2.92, E 3.25, M 2.42, G 3.89, N 1.89, H 3.1
S20: W 2.12, Q 3.58, I 1.78, Y 2.86, G 2.08, H 2.64, V 1.85, L 2.12, T 3.42, R 2.82, P 1.69, M 1.28
G21: T 2, Q 3.44, N 2.47, L 3.1, R 2.47, M 3.38, S 3.83, E 3.64, I 1.98, C 3.88, W 2.96, V 2.17, P 2.65, H 3.14, F 2.53, D 3.45, A 2.99
V23: M 2.32, F 1.77, C 2.37, Y 2.47, K 2.21, Q 3.61, D 3.41, G 3.42, E 3.48, P 3.61, R 1.46
